The values that follow come from patent US20210380703A1 (RIGEL PHARMACEUTICALS, published 2021).

Changes are numbered by the printed parent chain.

B1: 368_G03 (antibody, V domains shown)
VH: EVQLLESGGGLVQPGGSLRLSCAASGFTFSSYSMNWVRQAPGKGLEWVSGINYNSGYTSYADSVKGRFTISRDNSKNTLYLQMNSLRAEDTAVYYCARGATWHDTALDYWGQGTLVTVSS
VL: DIQMTQSPSSLSASVGDRVTITCRASQSILSYLNWYQQKPGKAPKLVIYAATSRASGVPSRFSGSGSGTDFTLTISSLQPEDFATYYCQQSYDTPLTFGGGTKVEIK
notes: VH/VL only
B2: 369_H12 (antibody, V domains shown)
VH: B1 VH with S49A, S55G, T58K, A106H
VL: B1 VL with L30V, S31T, L33V, T94S
notes: VH/VL only
B3: 369_G05 (antibody, V domains shown)
VH: B1 VH with S49A, S55G, A106H
VL: B1 VL with L30V, V47L, A55H, T94S
notes: VH/VL only
B4: 370_D03 (antibody, V domains shown)
VH: B1 VH with S49A, G50S, S55G, A106H
VL: B1 VL with L30I, S31T, V47L, T94L
notes: VH/VL only
B5: 370_B08 (antibody, V domains shown)
VH: B1 VH with S31D, S49A, G50N, S55G, S59G, A106H
VL: B1 VL with V47L, T52S, R54L, A55Q, T94S
notes: VH/VL only
B6: 369_E05 (antibody, V domains shown)
VH: B1 VH with S31D, S33G, S49A, G50N, S55G, T58K, A106H
VL: B1 VL with S31T, V47L, R54L, D93E
notes: VH/VL only
B7: 370_E05 (antibody, V domains shown)
VH: B1 VH with S33G, G50N, S55G, T58K, S59G, A106H
VL: B1 VL with L30S, S31T, A51V, D93N, T94S
notes: VH/VL only
B8: 369_E08 (antibody, V domains shown)
VH: B1 VH with S49A, G50S, S59G, A106H
VL: B1 VL with S31T, L33V, V47L, T94S
notes: VH/VL only
B9: 370_C06 (antibody, V domains shown)
VH: B1 VH with S49A, G50N, S55G, T58K, A106H
VL: B1 VL with S31T, L33V, V47L, T52S, R54L, A55Q, D93S
notes: VH/VL only
B10: 369_H08 (antibody, V domains shown)
VH: B1 VH with S49A, T58K, A106H
VL: B1 VL with L33V, R54L, D93E, T94S
notes: VH/VL only
B11: 369_C12 (antibody, V domains shown)
VH: B1 VH with S33G, S49A, G50N, S55G, T58K, S59G, A106H
VL: B1 VL with S31T, V47L, A55H
notes: VH/VL only
B12: 369_F05 (antibody, V domains shown)
VH: B1 VH with S55G, T58K, A106H
VL: B1 VL with L30S, V47L, T52S, R54L, A55Q, S91G, T94S
notes: VH/VL only
B13: 369_H02 (antibody, V domains shown)
VH: B1 VH with S30D, S31D, G50N, S55G, T58K, A106H
VL: B1 VL with L30I, V47L, T94S
notes: VH/VL only
B14: 370_C10 (antibody, V domains shown)
VH: B1 VH with S30D, G50N, T58K, S59G, A106H
VL: B1 VL with L30V, L33V, V47L, A51T, D93S, T94S
notes: VH/VL only
B15: 368_H06 (antibody, V domains shown)
VH: B1 VH with S30D, S33G, N35H, S49A, G50N, S55G, T58K, A106H
VL: B1 VL with S31T, L33V, V47L, A51T, T94N
notes: VH/VL only
B16: 368_G10 (antibody, V domains shown)
VH: B1 VH with N35H, G50S, S55G, A106H
VL: B1 VL with L30V, L33V
notes: VH/VL only
B17: 368_H11 (antibody, V domains shown)
VH: B1 VH with S30D, S33G, N35H, S49A, G50S, S55G, A106H
VL: B1 VL with V47L, Y92D
notes: VH/VL only
B18: 370_E04 (antibody, V domains shown)
VH: B1 VH with S49A, G50N, S55G, T58K, S59G, A106H
VL: B1 VL with S31T, V47L, A51V, R54L, A55H, D93E
notes: VH/VL only
B19: 369_A11 (antibody, V domains shown)
VH: B1 VH with S30D, S33G, S49A, G50N, S55G, T58K, S59G, A106H
VL: B1 VL with L30I, S31T, A55H, D93E, T94S
notes: VH/VL only
B20: 370_D09 (antibody, V domains shown)
VH: B1 VH with S31D, A106H
VL: B1 VL with L30V, S31T
notes: VH/VL only
B21: 369_D08 (antibody, V domains shown)
VH: B1 VH with S31D, S49A, G50S, S55G, T58K, S59G, A106H
VL: B1 VL with S31T, V47L
notes: VH/VL only
B22: 369_F09 (antibody, V domains shown)
VH: B1 VH with S33G, N35H, S49A, S55G, A106H
VL: B1 VL with S31T, L33V, V47L, T94S
notes: VH/VL only
B23: 370_C07 (antibody, V domains shown)
VH: B1 VH with S49A, G50N, S55G, T58K, A106H
VL: B1 VL with V47L, A55H, D93E, T94S
notes: VH/VL only
Further: test concentration or dose not given here.

One assay deals with Mouse ACVR2A (mouse, UniProt P27038 20-135, limits assumed). The experiment in a line: ELISA. In outline: (§1)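 Binding signal was read by ELISA after ACVR2A-specific monoclonal antibodies were tested against human ACVR2A and mouse ACVR2A, with human Fc as the negative control.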
Chain of Mouse ACVR2A (P27038 20-135 limits assumed): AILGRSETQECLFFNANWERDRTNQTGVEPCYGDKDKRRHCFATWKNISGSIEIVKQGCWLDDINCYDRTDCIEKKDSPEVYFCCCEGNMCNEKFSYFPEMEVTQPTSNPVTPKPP
In turn, B1 gave an optical density of 2.75 OD.
B2 showed an optical density of 3.42 OD.
B3 registered an optical density of 3.28 OD.
Molecule B4 registered an optical density of 3.25 OD.
B5: the optical density is 3.25 OD.
For the molecule B6, the optical density came out at 1.64 OD.
With B7, the optical density came out at 2.77 OD.
Same read-out and setting: the result for B8 reads 1.23 OD; that for B9, 3.41 OD; that for B10, 3.23 OD.
Turning to B11, the optical density was found to be 3.45 OD.
The same measure, in the same setting: the result for B12 reads 0.931 OD; that for B13, 3.29 OD.
B14 registered an optical density of 1.38 OD.
Still for that read-out and setting: with B15 the figure was 2.65 OD.
In the case of B16, the optical density turned out to be 2.28 OD.
Same read-out and setting: the result for B17 reads 2.13 OD.
Still for that read-out and setting: the result for B18 reads 2.72 OD.
Still for that read-out and setting: with B19 the figure was 2.77 OD; with B20, 2.53 OD; with B21, 3.13 OD.
With B22, the optical density was determined as 3.38 OD.
The molecule B23 showed an optical density of 3.37 OD.

The target in a further assay is T1, Human ACVR2A (human, UniProt P27037 20-135, limits assumed).
T1 construct: also called activin receptor, type II A
T1 sequence (P27037 20-135 limits assumed): as the sequence (P27038 20-135 limits assumed) above, with R20K, I73V counted along it
As to the kind of experiment: ELISA. In outline: as §1
On the technique in general: ELISA stands for enzyme-linked immunosorbent assay.
The molecule B1 registered an optical density of 2.73 OD.
Molecule B2 came in with an optical density of 3.46 OD.
On the same count and under the same terms, with B3 the figure was 3.04 OD.
Still for that read-out and setting: with B4 the figure was 3.13 OD.
Consider B5, for which the optical density was found to be 3.13 OD.
Still for that read-out and setting: with B6 the figure was 1.41 OD; with B7, 2.58 OD.
Molecule B8 yielded an optical density of 1.03 OD.
The same measure, in the same setting: with B9 the figure was 3.14 OD; with B10, 3.16 OD; with B11, 3.43 OD.
Molecule B12 displayed an optical density of 0.796 OD.
The same measure, in the same setting: the result for B13 reads 3.09 OD.
Take B14: the optical density was found to be 1.3 OD.
Regarding B15, the optical density stood at 2.35 OD.
On the same count and under the same terms, with B16 the figure was 2.06 OD.
On to B17, for which the optical density amounted to 1.95 OD.
With B18, the optical density is 2.57 OD.
On the same count and under the same terms, with B19 the figure was 2.64 OD; with B20, 2.92 OD; with B21, 2.94 OD.
On the same count and under the same terms, the result for B22 reads 3.23 OD; that for B23, 3.35 OD.

In another assay the target is T2, Goat anti-Human Kappa.
T2 construct: Positive control; also called biotinylated goat anti-human kappa light chain
As to the kind of experiment: ELISA; positive control. In outline: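 Monoclonal antibodies were first applied to human or mouse ACVR2A, alongside biotinylated goat anti-human kappa light chain (positive control) and human Fc (negative control); binding was then determined by ELISA.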
Molecule B1 returned an optical density of 3.39 OD.
The same measure, in the same setting: the result for B2 reads 3.65 OD.
The same measure, in the same setting: the result for B3 reads 3.31 OD; that for B4, 3.58 OD.
Same read-out and setting: the result for B5 reads 3.35 OD; that for B6, 1.9 OD; that for B7, 3.52 OD.
On to B8, for which the optical density is 1.12 OD.
Still for that read-out and setting: with B9 the figure was 3.55 OD; with B10, 3.56 OD; with B11, 3.74 OD.
In turn, B12 yielded an optical density of 3.46 OD.
Molecule B13 showed an optical density of 3.57 OD.
As to B14, the optical density was found to be 3.35 OD.
Same read-out and setting: the result for B15 reads 3.61 OD; that for B16, 3.45 OD; that for B17, 3.51 OD.
The same measure, in the same setting: the result for B18 reads 3.4 OD.
Same read-out and setting: with B19 the figure was 3.29 OD.
Take B20: the optical density was determined as 3.48 OD.
On the same count and under the same terms, the result for B21 reads 3.06 OD; that for B22, 3.6 OD; that for B23, 3.3 OD.
